Laboratory results reported in the supplement of paper PMC7125110.
± gives the standard error. For part of these data: Fewer inactive variants are shown than the library holds.

B1: glmS ribozyme (parent)
chain: AUAAAAGCGCCAGAACUACAGAAAUGUAGUUGACGAGGAGGAGGUUUAUCGAAUUUUCGGCGGAUGCCUCCAAA

Assays:
Conditions in all cases: with glucosamine-6-phosphate
glucosamine-6-phosphate [1] = variants of: B1; assay: kcat; higher = faster cleavage; RNA array
In short: (§1)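 The measurements used barcoded ribozyme variants on sequenced MiSeq chips, transcribed in situ by E. coli RNA polymerase and tracked at 37 °C with a hybridised Cy3 probe. Glucosamine-6-phosphate, 40 μM to 10 mM in HEPES/KCl/Mg(OAc)2 buffer, was flowed in while tiles were imaged over ~14 h. Baseline-normalised signals, also normalised to non-cleaving reference variants, gave per-tile medians that were fit to one- or two-exponential decays for kobs. kcat and KM resulted from weighted Michaelis–Menten fits across concentrations.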

glucosamine-6-phosphate [2] = variants of: B1; assay: KM; higher = weaker cofactor use; RNA array
In short: as §1

glucosamine-6-phosphate [3] = variants of: B1; assay: self-cleavage kobs at 40 uM GlcN6P; higher = faster cleavage; RNA array
In short: as §1

glucosamine-6-phosphate [4] = variants of: B1; assay: self-cleavage kobs at 160 uM GlcN6P; higher = faster cleavage; RNA array
In short: as §1

glucosamine-6-phosphate [5] = variants of: B1; assay: self-cleavage kobs at 640 uM GlcN6P; higher = faster cleavage; RNA array
In short: as §1

glucosamine-6-phosphate [6] = variants of: B1; assay: self-cleavage kobs at 2500 uM GlcN6P; higher = faster cleavage; RNA array
In short: as §1

glucosamine-6-phosphate [7] = variants of: B1; assay: self-cleavage kobs at 10000 uM GlcN6P; higher = faster cleavage; RNA array
In short: as §1

Variant	kcat (glucosamine-6-phosphate [1])	KM (glucosamine-6-phosphate [2])	self-cleavage kobs at 40 uM GlcN6P (glucosamine-6-phosphate [3])	self-cleavage kobs at 160 uM GlcN6P (glucosamine-6-phosphate [4])	self-cleavage kobs at 640 uM GlcN6P (glucosamine-6-phosphate [5])	self-cleavage kobs at 2500 uM GlcN6P (glucosamine-6-phosphate [6])	self-cleavage kobs at 10000 uM GlcN6P (glucosamine-6-phosphate [7])
AUAAAAGCGCCAGAACUACAGAAAUGUAGUCGACGAGGAGGAGGUUUAUCGAAUUUUCGGCGGAUGCCUCCAAA [U31C]	0.00939 ± 0.0013 s⁻¹	2370 ± 430 µM	0.000168 ± 2.9e-06 s⁻¹	0.000489 ± 1.7e-05 s⁻¹	0.00208 ± 7.4e-05 s⁻¹	0.00415 ± 0.00014 s⁻¹	0.00805 ± 0.00018 s⁻¹
AUAAAAGCGCCAGAACUACAGAAAUGUAGUAGACGAGGAGGAGGUUUAUCGAAUUUACGGCGGAUGCCUCCAAA [U31A U57A]	0.000241 ± 3.5e-06 s⁻¹	2390 ± 95 µM			4.97e-05 ± 2.1e-05 s⁻¹	0.000125 ± 2.8e-05 s⁻¹	0.000194 ± 2.7e-05 s⁻¹
AUAAAAGCGCCAGAACUACAGAAAUGUAGUCGACGAGGCGGAGGUUUAUCGAAUUUUCGGCGGAUGCCUCCAAA [U31C A39C]	0.00127 ± 0.00014 s⁻¹	2620 ± 500 µM	3.17e-05 ± 7.1e-06 s⁻¹	6.64e-05 ± 9.6e-06 s⁻¹	0.000259 ± 2.4e-05 s⁻¹	0.00058 ± 5.1e-05 s⁻¹	0.00102 ± 6.7e-05 s⁻¹
AUAAAAGCGCCAGAACUACAGAAAUGUAGUCGACGAGGGGGAGGUUUAUCGAAUUUUCGGCGGAUGCCUCCAAA [U31C A39G]	0.018 ± 0.0061 s⁻¹	4940 ± 2200 µM	0.000253 ± 4.8e-05 s⁻¹	0.000489 ± 8.5e-05 s⁻¹	0.00212 ± 0.00039 s⁻¹	0.00524 ± 0.0013 s⁻¹	0.0125 ± 0.0018 s⁻¹
AUAAAAGCGCCAGAACUACAGAAAUGUAGUAGACGAGGAGGAGGUUUAUCGAAUUUUCGGCGGAGGCCUCCAAA [U31A U65G]	0.00228 ± 0.00054 s⁻¹	2390 ± 1000 µM	3.37e-05 ± 1.5e-05 s⁻¹	0.000211 ± 6.2e-05 s⁻¹	0.000521 ± 8.8e-05 s⁻¹	0.000854 ± 0.00019 s⁻¹	0.00205 ± 0.00027 s⁻¹
AUAAAAGCGCCAGAACUACAGAAAUGUAGUAGACGAGGAGGAGGUUUAUCGAAUUUUCGGCGGAAGCCUCCAAA [U31A U65A]	0.00266 ± 0.00015 s⁻¹	3820 ± 350 µM	2.41e-05 ± 1.1e-05 s⁻¹	9.46e-05 ± 3.5e-05 s⁻¹	0.000399 ± 5.4e-05 s⁻¹	0.00107 ± 0.00022 s⁻¹	0.00191 ± 0.00022 s⁻¹
AUAAAAGCGCCAGAACUACAGAAAUGUAGUCGUCGAGGAGGAGGUUUAUCGAAUUUUCGGCGGAUGCCUCCAAA [U31C A33U]	1.97e-05 ± 2.4e-06 s⁻¹						1.73e-05 ± 6e-06 s⁻¹
